Results on four molecules are retold here after patent US20170044234A1 (INSERM INSTITUT NATIONAL DE LA SANTE ET DE LA RECHERCHE …, published 2017).

T1: Myc-tagged full-length human PLCγ1 (human, UniProt P19174 1-1290)
T1 construct: Transfected into HEK cells; also called wild type PLCγ1; phospholipase Cγ1; not shown: Myc tag of the pTriEx-4 construct
T1 sequence (looked up): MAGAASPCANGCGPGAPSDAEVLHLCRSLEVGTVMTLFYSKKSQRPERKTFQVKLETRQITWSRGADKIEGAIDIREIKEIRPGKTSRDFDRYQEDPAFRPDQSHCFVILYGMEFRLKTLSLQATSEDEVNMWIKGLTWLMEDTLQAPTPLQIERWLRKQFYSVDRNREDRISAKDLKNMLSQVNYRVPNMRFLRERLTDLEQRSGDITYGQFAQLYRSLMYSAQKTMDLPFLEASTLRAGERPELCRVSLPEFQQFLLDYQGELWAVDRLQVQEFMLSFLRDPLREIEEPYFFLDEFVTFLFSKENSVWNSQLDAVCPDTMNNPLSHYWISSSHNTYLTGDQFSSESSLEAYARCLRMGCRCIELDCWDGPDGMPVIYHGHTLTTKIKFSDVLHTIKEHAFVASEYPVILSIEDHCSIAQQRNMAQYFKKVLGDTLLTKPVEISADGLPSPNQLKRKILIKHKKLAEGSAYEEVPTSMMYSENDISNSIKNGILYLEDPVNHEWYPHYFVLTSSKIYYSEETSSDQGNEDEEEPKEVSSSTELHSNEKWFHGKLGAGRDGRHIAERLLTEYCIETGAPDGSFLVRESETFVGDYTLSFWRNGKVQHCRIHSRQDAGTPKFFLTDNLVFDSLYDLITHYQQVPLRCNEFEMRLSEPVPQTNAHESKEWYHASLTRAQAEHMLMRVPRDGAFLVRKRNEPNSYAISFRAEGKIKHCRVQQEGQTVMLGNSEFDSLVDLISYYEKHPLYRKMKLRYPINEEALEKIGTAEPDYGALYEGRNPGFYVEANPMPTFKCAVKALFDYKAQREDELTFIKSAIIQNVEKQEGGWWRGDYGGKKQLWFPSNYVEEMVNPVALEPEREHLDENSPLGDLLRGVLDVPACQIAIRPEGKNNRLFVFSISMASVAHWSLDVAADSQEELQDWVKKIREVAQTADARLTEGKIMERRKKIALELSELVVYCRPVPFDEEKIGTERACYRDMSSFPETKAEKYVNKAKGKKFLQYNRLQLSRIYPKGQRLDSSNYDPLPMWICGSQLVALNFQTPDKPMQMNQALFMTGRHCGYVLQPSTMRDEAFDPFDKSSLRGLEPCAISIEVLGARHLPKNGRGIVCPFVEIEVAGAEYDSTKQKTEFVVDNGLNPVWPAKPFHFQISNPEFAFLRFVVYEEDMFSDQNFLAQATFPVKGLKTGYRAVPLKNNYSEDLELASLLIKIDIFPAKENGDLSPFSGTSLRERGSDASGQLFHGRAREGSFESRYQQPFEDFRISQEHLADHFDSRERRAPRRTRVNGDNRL

T2: GFP-fused CD95^1-210 (human, UniProt P25445 17-226)
T2 construct: also called CD95 construct devoid of DD; not shown: GFP of vector pEGFP-N1 (Clontech), fused C-terminally
T2 sequence: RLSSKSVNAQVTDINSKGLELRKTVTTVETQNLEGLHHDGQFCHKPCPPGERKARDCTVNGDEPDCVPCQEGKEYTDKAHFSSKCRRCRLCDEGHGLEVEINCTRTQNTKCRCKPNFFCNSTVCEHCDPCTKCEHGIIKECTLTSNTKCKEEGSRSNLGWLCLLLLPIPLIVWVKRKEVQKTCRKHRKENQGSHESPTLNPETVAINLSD

B1: neutralizing anti-CD95L mAb (Nok1) (antibody, from another filing, V domains shown)
VH: VQLQESGPELVKPGASVKISCKASGYAFSSSWMNWVKQRPGKGLEWIGRIYPGDGDTNDNGKFKGKATLTADKSSSTAYMQLSSLTSEDSAVYFCARSYYYDGSPWFTYWGQGTTVTVSS
VL: DIQMTQSPSSLSASLGDRVTISCRASQDISNYLNWYQQKPDGTVKLLIYYTSRLHSGVPSRFSGSGSGTDYSLTISNLEPEDIATYFCQQYSEFPWTFGGGTKLEIKR
B2: CD95^(175-210)-mCherry (other)
chain: KRKEVQKTCRKHRKENQGSHESPTLNPETVAINLSD-mCherry
modifications: also: mCherry fused C-terminally, junction not given here
notes: Expressed in HEK cells together with PLCγ1; also called CID-mCherry; CID-mCHERRY; not shown: mCherry of vector pmCHERRY-N1, fused C-terminally
B3: adaptor protein FADD (other, UniProt Q13158 1-208, looked up)
chain: MDPFLVLLHSVSSSLSSSELTELKFLCLGRVGKRKLERVQSGLDLFSMLLEQNDLEPGHTELLRELLASLRRHDLLRRVDDFEAGAAAGAAPGEEDLCAAFNVICDNVGKDWRRLARQLKVSDTKIDSIEDRYPRNLTERVRESLRIWKNTEKENATVAHLVGALRSCQMNLVADLVQEVQQARDLQNRSGAMSPMSWNSDASTSEAS
notes: Detected with an anti-human FADD mAb (clone 1); also called Fas-associated death domain protein
B4: GFP-fused CD95^1-175 (receptor)
chain: RLSSKSVNAQVTDINSKGLELRKTVTTVETQNLEGLHHDGQFCHKPCPPGERKARDCTVNGDEPDCVPCQEGKEYTDKAHFSSKCRRCRLCDEGHGLEVEINCTRTQNTKCRCKPNFFCNSTVCEHCDPCTKCEHGIIKECTLTSNTKCKEEGSRSNLGWLCLLLLPIPLIVWVK
notes: also called CD95 devoid of the entire intracellular domain; not shown: GFP of vector pEGFP-N1 (Clontech), fused C-terminally

Assay [1] has as its target serum CD95L of SLE patients (soluble, homotrimeric) (human) (UniProt P48023). The assay is described as follows: cell-based or functional assay.
In assay [2] the target is T1, Myc-tagged full-length human PLCγ1. Nature of the assay: PLCγ1 immunoprecipitation from HEK cells co-transfected with PLCγ1 and CID-mCherry, immunoblot. For orientation: Immunoblotting shows a protein as a band on a membrane.
Description: (§1) The immune complex was resolved by SDS-PAGE, and the indicated immunoblotting was performed. Total lysates were loaded as a control. […] The immune complex was resolved by SDS/PAGE, and the indicated immunoblottings were performed. Total lysates were loaded as a control. […] The immune complex was resolved by SDS-PAGE, and the indicated immunoblotting was performed. Total lysates were loaded as a control. […] The immune complex was resolved by SDS-PAGE, and the indicated immunoblotting was performed. Total lysates were loaded as a control. E. Jurkat and CEM were loaded with FuraPE3-AM (1 μM), pretreated for 1 h with 10 μM of TAT-control or TAT-CID and then stimulated with 100 ng/ml of cl-CD95L (black arrow). Ratio images were taken every 10 s and were normalized vs pre-stimulated values. F. Human PBLs from healthy donors were loaded with furaPE3-AM (1 μM) pretreated for 1 h with 10 μM of TAT-control or TAT-CID or with the IP3R inhibitor Xestospongin C (positive control, 1 μM, 1 h) and then stimulated with 100 ng/ml of cl-CD95L (black arrow). Ratio values (R) were normalized vs pre-stimulated values (R0). Data represent mean±SD of R/R₀ measured in n cells.
A further assay addresses T2, GFP-fused CD95^1-210. Nature of the assay: co-immunoprecipitation with CD95 from transfected HEK cells stimulated with CD95L, immunoblot.
For the assay “adaptor protein FADD”, the target named is B3. The assay is described as above.
Description: as §1
Assay [3] concerns the target T1, Myc-tagged full-length human PLCγ1. Described as above.
Description: as §1

Ends that are not written are not given here.

serum CD95L of SLE patients (soluble, homotrimeric) (human), sequence (P48023 130-281 limits assumed): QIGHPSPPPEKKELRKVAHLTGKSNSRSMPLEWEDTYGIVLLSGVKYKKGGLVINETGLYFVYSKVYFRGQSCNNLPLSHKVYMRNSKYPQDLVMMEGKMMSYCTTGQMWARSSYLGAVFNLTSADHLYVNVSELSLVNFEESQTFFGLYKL
Description for GFP-fused CD95^1-210: as §1

B1 had a T-cell transmigration induced by fractions 76-78 in assay [1] of less than 50%.
B2: the binding result in assay [2] was “binds”.
With B3, in the assay with GFP-fused CD95^1-210, the binding result was “no binding”.
As to B4, the binding result (with adaptor protein FADD; in assay [3]) was “no binding” throughout.
